The target of the assay is RipA fused to the Nanoluciferase large subunit (CEPlac-lgbit-ripA). Briefly: split-luciferase assay. The note with it: in S. pneumoniae cells, signal relative to control strains R5380 and R5570, read off a plot.

Take “DnaN fused to the Nanoluciferase small subunit (CEPIIlac-smBit-dnaN) (from UniProt O06672) H183P”: the response (relative fold induction) (strain R5566 vs R5381, parent: est. 22) amounted to 4.8.

For “DnaN fused to the Nanoluciferase small subunit (CEPIIlac-smBit-dnaN) (from UniProt O06672) L185R”, the response (relative fold induction) (strain R5567 vs R5381, parent: est. 27) was 5.5.

In the case of “DnaN fused to the Nanoluciferase small subunit (CEPIIlac-smBit-dnaN) (from UniProt O06672) Y249N”, the response (relative fold induction) (strain R5568 vs R5381, parent: est. 13) was 4.8.
